Assay results published in patent US20150259371A1, “METHODS AND COMPOUNDS FOR INHIBITING GLYCOSYLTRANSFERASES” (SIMON FRASER UNIVERSITY, priority 2010, published 2015).

Substrate: COc1ccc(O[C@H]2S[C@H](CO)[C@@H](O)[C@H](O)[C@H]2NC(C)=O)cc1
Assay: OGA kinetics, Michaelis-Menten hydrolysis of pMP glycosides
Assay type: biochemical, human
Settings: other: 37° C., pH 7.4
Protocol: OGA kinetics: Synthesis and characterization of para-methoxyphenyl-5SGlcNAc is described in Example II. Kinetics were performed at 37° C. in PBS, pH 7.4 in a total volume of […]. Substrate concentrations of 25 μM to 1.5 mM were used for pMP-GlcNAc and 25 to 800 μM for pMP-5SGlcNAc. OGA (which was over-expressed and purified as described in Ref. ^42) was used at a concentration of 1 μM for pMP-GlcNAc and 3.6 μM for pMP-5SGlcNAc. Rates were monitored at a wavelength of 296 nm over the course of 10-20 min. Data were fit to the Michaelis-Menten equation in GRAFIT^41 and the kcat and KM values determined.

B1: OGA (Homo sapiens) (protein)
chain: MVQKESQATLEERESELSSNPAASAGASLEPPAAPAPGEDNPAGAGGAAVAGAAGGARRFLCGVVEGFYGRPWVMEQRKELFRRLQKWELNTYLYAPKDDYKHRMFWREMYSVEEAEQLMTLISAAREYEIEFIYAISPGLDITFSNPKEVSTLKRKLDQVSQFGCRSFALLFDDIDHNMCAADKEVFSSFAHAQVSITNEIYQYLGEPETFLFCPTEYCGTFCYPNVSQSPYLRTVGEKLLPGIEVLWTGPKVVSKEIPVESIEEVSKIIKRAPVIWDNIHANDYDQKRLFLGPYKGRSTELIPRLKGVLTNPNCEFEANYVAIHTLATWYKSNMNGVRKDVVMTDSEDSTVSIQIKLENEGSDEDIETDVLYSPQMALKLALTEWLQEFGVPHQYSSRQVAHSGAKASVVDGTPLVAAPSLNATTVVTTVYQEPIMSQGAALSGEPTTLTKEEEKKQPDEEPMDMVVEKQEETDHKNDNQILSEIVEAKMAEELKPMDTDKESIAESKSPEMSMQEDCISDIAPMQTDEQTNKEQFVPGPNEKPLYTAEPVTLEDLQLLADLFYLPYEHGPKGAQMLREFQWLRANSSVVSVNCKGKDSEKIEEWRSRAAKFEEMCGLVMGMFTRLSNCANRTILYDMYSYVWDIKSIMSMVKSFVQWLGCRSHSSAQFLIGDQEPWAFRGGLAGEFQRLLPIDGANDLFFQPPPLTPTSKVYTIRPYFPKDEASVYKICREMYDDGVGLPFQSQPDLIGDKLVGGLLSLSLDYCFVLEDEDGICGYALGTVDVTPFIKKCKISWIPFMQEKYTKPNGDKELSEAEKIMLSFHEEQEVLPETFLANFPSLIKMDIHKKVTDPSVAKSMMACLLSSLKANGSRGAFCEVRPDDKRILEFYSKLGCFEIAKMEGFPKDVVILGRSL
notes: made in house
Km: 35 µM
